The text below walks through data of paper PMC4872217, “Structural and functional insights into the E3 ligase, RNF126” (Scientific Reports, 2016).

To fix the notation:
B2: RNF126_NZF (RNF126 N-terminal zinc finger domain, residues 1-40) (domain or fragment, human, UniProt Q9BV68 1-40, looked up)
chain: MAEASPHPGRYFCHCCSVEIVPRLPDYICPRCESGFIEEL
notes: RNF126, human, residues 1-40 (N-terminal zinc finger); 15N- or 15N,13C-labelled where it was the observed protein in NMR; Cultures were supplemented with 10 uM ZnCl2; also called RNF126 1-40; not shown: thioredoxin A, N-terminal, cleaved; His6, N-terminal, cleaved
B5: BAG6_UBL (UBL domain of BAG6, residues 17-101) (domain or fragment, UniProt P46379 17-101, looked up)
chain: LEVLVKTLDSQTRTFIVGAQMNVKEFKEHIAASVSIPSEKQRLIYQGRVLQDDKKLQEYNVGGKVIHLVERAPPQTHLPSGASSG
notes: BAG6 (BCL2-associated athanogene 6), UBL domain, residues 17-101; The general purification protocol describes TEV cleavage; also called BAG6 UBL domain; source: E. coli BL21 (DE3), purified

The target in assay [1] is T1, RNF126 N-terminal region (residues 1-100) (human, UniProt Q9BV68 1-100).
T1 construct: RNF126, human, residues 1-100; also called RNF126 1-100; RNF126_NT (1-100); not shown: thioredoxin A, N-terminal, cleaved; His6, N-terminal, cleaved
Kind of assay: NMR titration; unlabelled protein titrated into 15N-labelled protein, 1H-15N HSQC chemical shift perturbation; 25 °C; 10 mM potassium phosphate pH 6.0, 100 mM NaCl, 250 μM TCEP; for RNF126_NZF into UBL4A_UBL fitted with DynaFit to a 1:1 model. To be noted: both partners purified.

Assay [2] concerns the target B5. As to the kind of experiment: ITC; 500 μM RNF126_NZF (wild-type or mutant) injected into 50 μM BAG6_UBL in the cell; 25 °C; 10 mM potassium phosphate pH 6.0, 100 mM NaCl, 250 μM TCEP. To be noted: both partners purified. (In general: Isothermal titration calorimetry measures the heat released or taken up as one component is titrated into another.)
Assay [3] has as its target UBL4A_UBL (UBL domain of UBL4A, residues 1-74) (UniProt P11441). As to the kind of experiment: NMR titration; unlabelled protein titrated into 15N-labelled protein, 1H-15N HSQC chemical shift perturbation; 25 °C; 10 mM potassium phosphate pH 6.0, 100 mM NaCl, 250 μM TCEP; for RNF126_NZF into UBL4A_UBL fitted with DynaFit to a 1:1 model.
For assay [4], the target named is T2, SGTA_NT (N-terminal SGTA, residues 1-86) (human, UniProt O43765 1-86).
T2 construct: SGTA (small glutamine-rich tetratricopeptide repeat-containing protein alpha), human, residues 1-86; Only the 1-86 construct is described in the methods; not shown: thioredoxin A, N-terminal, cleaved; His6, N-terminal, cleaved
T2 sequence (O43765 1-86): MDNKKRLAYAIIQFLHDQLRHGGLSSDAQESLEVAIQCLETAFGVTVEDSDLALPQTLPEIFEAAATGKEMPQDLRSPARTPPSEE
The assay is described as above. To be noted: both partners purified.

Assay [5] deals with B2. The description is as above. To be noted: both partners purified.

B1: UBL4A_UBL (UBL domain of UBL4A, residues 1-74) (domain or fragment, UniProt P11441 1-74, looked up)
chain: MQLTVKALQGRECSLQVPEDELVSTLKQLVSEKLNVPVRQQRLLFKGKALADGKRLSDYSIGPNSKLNLVVKPL
notes: UBL4A (ubiquitin-like protein 4A), UBL domain, residues 1-74; source: E. coli Rosetta, purified
As to B1, in assay [1], the binding result is listed as “binds”.
As a reminder, the Kd is the concentration at which binding is half-saturated. In general, stoichiometry N refers to the number of molecules, sites or subunits per partner or assembly. As for B2, in assay [2], the Kd was 0.4 ± 0.05 µM, the dH is -4.52 ± 0.04 kcal/mol and the “stoichiometry N” value is 1. The Kd in assay [3] was determined as 16.6 µM.

B3: RNF126_NZF H14A mutant (domain or fragment, human, UniProt Q9BV68 1-40, looked up)
chain: MAEASPHPGRYFCACCSVEIVPRLPDYICPRCESGFIEEL
notes: RNF126, human, residues 1-40, with H14A; Made by PCR mutagenesis on pET28-GFP-RNF126 (1-40); in the native PAGE the mutants were GFP tagged; also called His14/Ala; source: E. coli BL21 (DE3), purified
B3 came in with a Kd in assay [2] of over 50 µM.

B4: RNF126_NZF F36A mutant (domain or fragment, human, UniProt Q9BV68 1-40, looked up)
chain: MAEASPHPGRYFCHCCSVEIVPRLPDYICPRCESGAIEEL
notes: RNF126, human, residues 1-40, with F36A; Made by PCR mutagenesis on pET28-GFP-RNF126 (1-40); in the native PAGE the mutants were GFP tagged; also called Phe36/Ala; source: E. coli BL21 (DE3), purified
In assay [2], B4 came in with a Kd of 5 ± 0.3 µM.
Regarding B5, the binding result in assay [1] and in assay [4] was “binds” each time. Besides, the “stoichiometry N” value in assay [5] was about 1 molar ratio.
